Measurements reported in patent US20080171059.

Assays:
[1] = target: New York Esophageal 1 antigen (NY-ESO-1), P78358
[2] = target: Aga2p-N9V fusion surface-displayed on yeast, unmodified (G4S)3 linker (construct pCT-N9V, as in strain EBYN9V)

New York Esophageal 1 antigen (NY-ESO-1), P78358, sequence (P78358 whole entry, the tested form may be a part): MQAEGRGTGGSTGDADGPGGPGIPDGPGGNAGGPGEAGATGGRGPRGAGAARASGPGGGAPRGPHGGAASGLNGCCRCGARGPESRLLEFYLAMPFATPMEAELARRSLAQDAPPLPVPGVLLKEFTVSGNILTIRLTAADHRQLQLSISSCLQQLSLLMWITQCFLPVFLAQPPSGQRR

B1: recombinant human Cathepsin S (protein)
chain: LPDSVDWREKGCVTEVKYQGSCGACWAFSAVGALEAQLKLKTGKLVSLSAQNLVDCSTEKYGNKGCNGGFMTTAFQYIIDNKGIDSDASYPYKAMDQKCQYDSKYRAATCSKYTELPYGREDVLKEAVANKGPVSVGVDARHPSFFLYRSGVYYEPSCTQNVNHGVLVVGYGDLNGKEYWLVKNSWGHNFGEEGYIRMARNKGNHCGIASFPSYPEI
- cleavage by Cathepsin S [1]: the N-terminus of NY-ESO-1 (MQ|AE . . . ) ... are cleaved rapidly by Cathepsin S (at the positions indicated by the vertical bars)
- CatS cleavage rank order [2]: 4 rank
